System: Escherichia coli TOP10
Experiment: shrunken log2 fold change of peptide-encoding DNA abundance (4.5 h post-induction vs induction); higher = less antimicrobial activity (less host growth inhibition)
Conditions: time post-induction: 4.5 h; library: site-saturation at positions 5, 18, 19, 20
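Also: peptides expressed intracellularly from a pBAD plasmid library in pooled LB shake-flask culture, induced with 0.3% L-arabinose, DNA abundance read by NGS, three biological replicates, DESeq2 with apeglm shrinkage.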

| Sequence | shrunken log2 fold change |
| --- | --- |
| RRIRWRPPRLPRPRPRPYIFPRP | -0.242 |
| RRIRRRPPRLPRPRPRPTDQPRP | 0.552 |
| RRIRGRPPRLPRPRPRPSNAPRP | 0.216 |
| RRIRNRPPRLPRPRPRPHMFPRP | -0.0579 |
| RRIRRRPPRLPRPRPRPSPTPRP | 0.598 |
| RRIRVRPPRLPRPRPRPRASPRP | 0.281 |
| RRIRYRPPRLPRPRPRPHHTPRP | -0.418 |
| RRIRHRPPRLPRPRPRPLVDPRP | -0.219 |
| RRIRMRPPRLPRPRPRPTTPPRP | 1.15 |
| RRIRERPPRLPRPRPRPTDNPRP | -0.841 |
| RRIRWRPPRLPRPRPRPYQQPRP | -0.0018 |
| RRIRNRPPRLPRPRPRPEGQPRP | -0.00174 |
| RRIRRRPPRLPRPRPRPALCPRP | 0.334 |
| RRIRYRPPRLPRPRPRPQFKPRP | -0.134 |
| RRIRNRPPRLPRPRPRPWWNPRP | -0.141 |
| RRIRDRPPRLPRPRPRPCQIPRP | 0.0759 |
| RRIRKRPPRLPRPRPRPLVDPRP | 0.218 |
| RRIRDRPPRLPRPRPRPIEYPRP | -0.029 |
| RRIRYRPPRLPRPRPRPIFMPRP | -0.269 |
| RRIRSRPPRLPRPRPRPSIEPRP | -0.013 |
| RRIRLRPPRLPRPRPRPCHFPRP | -0.285 |
| RRIRMRPPRLPRPRPRPFIIPRP | -0.268 |
| RRIRRRPPRLPRPRPRPGAEPRP | 2.68 |
| RRIRVRPPRLPRPRPRPDMSPRP | -0.0318 |
| RRIRMRPPRLPRPRPRPRSCPRP | 0.274 |

| Sequence | shrunken log2 fold change |
| --- | --- |
| RRIRSRPPRLPRPRPRPPYNPRP | -0.602 |
| RRIRWRPPRLPRPRPRPVVCPRP | 0.301 |
| RRIRSRPPRLPRPRPRPEKQPRP | 0.1 |
| RRIRIRPPRLPRPRPRPHEKPRP | -0.123 |
| RRIRDRPPRLPRPRPRPLKTPRP | 0.333 |
| RRIRKRPPRLPRPRPRPITRPRP | 0.132 |
| RRIRCRPPRLPRPRPRPHHRPRP | -0.266 |
| RRIRCRPPRLPRPRPRPGAWPRP | 0.462 |
| RRIRCRPPRLPRPRPRPTELPRP | -0.106 |
| RRIRGRPPRLPRPRPRPFLEPRP | 0.625 |
| RRIRVRPPRLPRPRPRPIIRPRP | -0.199 |
| RRIRGRPPRLPRPRPRPGGYPRP | 0.505 |
| RRIRARPPRLPRPRPRPENMPRP | 0.242 |
| RRIRNRPPRLPRPRPRPQYSPRP | -0.232 |
| RRIRNRPPRLPRPRPRPSDMPRP | -0.117 |
| RRIRVRPPRLPRPRPRPIMNPRP | -0.752 |
| RRIRVRPPRLPRPRPRPLCSPRP | -0.0335 |
| RRIRRRPPRLPRPRPRPNPGPRP | -0.035 |
| RRIRRRPPRLPRPRPRPKKVPRP | 0.242 |
| RRIRMRPPRLPRPRPRPICDPRP | 0.36 |
| RRIRHRPPRLPRPRPRPCFKPRP | -1.25 |
| RRIRRRPPRLPRPRPRPKIDPRP | -0.000206 |
| RRIRTRPPRLPRPRPRPDLQPRP | -0.0382 |
| RRIRVRPPRLPRPRPRPCGMPRP | -0.00417 |
| RRIRLRPPRLPRPRPRPSYNPRP | -0.588 |

| Sequence | shrunken log2 fold change |
| --- | --- |
| RRIRFRPPRLPRPRPRPPNVPRP | 0.0696 |
| RRIRIRPPRLPRPRPRPRATPRP | 0.728 |
| RRIRNRPPRLPRPRPRPGMYPRP | -0.242 |
| RRIRDRPPRLPRPRPRPCQPPRP | -0.144 |
| RRIRGRPPRLPRPRPRPWKDPRP | 0.000655 |
| RRIRSRPPRLPRPRPRPKSFPRP | 0.172 |
| RRIRHRPPRLPRPRPRPTCNPRP | -0.411 |
| RRIRQRPPRLPRPRPRPPGEPRP | 0.119 |
| RRIRCRPPRLPRPRPRPNEQPRP | 0.256 |
| RRIRERPPRLPRPRPRPQWWPRP | 0.273 |
| RRIRERPPRLPRPRPRPIDYPRP | -0.0881 |
| RRIRNRPPRLPRPRPRPPHMPRP | -0.217 |
| RRIRDRPPRLPRPRPRPSIRPRP | -0.103 |
| RRIRGRPPRLPRPRPRPAMCPRP | 0.465 |
| RRIRVRPPRLPRPRPRPGLSPRP | 0.32 |
| RRIRTRPPRLPRPRPRPVWWPRP | 0.423 |
| RRIRDRPPRLPRPRPRPPVRPRP | 0.0542 |
| RRIRHRPPRLPRPRPRPFYYPRP | -0.0287 |
| RRIRTRPPRLPRPRPRPQIEPRP | -0.107 |
| RRIRVRPPRLPRPRPRPAAHPRP | 0.0619 |
| RRIRMRPPRLPRPRPRPTFFPRP | 0.229 |
| RRIRNRPPRLPRPRPRPLQSPRP | -0.0505 |
| RRIRLRPPRLPRPRPRPKGIPRP | -0.0776 |
| RRIRCRPPRLPRPRPRPRSRPRP | 0.299 |
| RRIRDRPPRLPRPRPRPGTVPRP | 0.118 |

| Sequence | shrunken log2 fold change |
| --- | --- |
| RRIRRRPPRLPRPRPRPDITPRP | 0.303 |
| RRIRLRPPRLPRPRPRPDDDPRP | 0.129 |
| RRIRCRPPRLPRPRPRPRQIPRP | 0.192 |
| RRIRHRPPRLPRPRPRPVGIPRP | -0.294 |
| RRIRIRPPRLPRPRPRPTPKPRP | -0.0169 |
| RRIRNRPPRLPRPRPRPPEWPRP | -0.188 |
| RRIRQRPPRLPRPRPRPDWHPRP | -0.038 |
| RRIRRRPPRLPRPRPRPVQNPRP | 0.285 |
| RRIRVRPPRLPRPRPRPSSYPRP | -0.139 |
| RRIRGRPPRLPRPRPRPEDVPRP | 0.157 |
| RRIRARPPRLPRPRPRPEAFPRP | 0.0217 |
| RRIRQRPPRLPRPRPRPGIMPRP | -0.0424 |
| RRIRIRPPRLPRPRPRPESVPRP | -0.00682 |
| RRIRHRPPRLPRPRPRPMENPRP | 0.00439 |
| RRIRRRPPRLPRPRPRPHGKPRP | 0.0359 |
| RRIRCRPPRLPRPRPRPLTPPRP | 0.292 |
| RRIRSRPPRLPRPRPRPKTAPRP | 0.097 |
| RRIRHRPPRLPRPRPRPKRGPRP | 0.0662 |
| RRIRSRPPRLPRPRPRPRFMPRP | -0.211 |
| RRIRPRPPRLPRPRPRPQICPRP | -0.0262 |
| RRIRWRPPRLPRPRPRPPSSPRP | 0.778 |
| RRIRIRPPRLPRPRPRPSTFPRP | -0.329 |
| RRIRCRPPRLPRPRPRPNKEPRP | -0.189 |
| RRIRFRPPRLPRPRPRPEPNPRP | 0.256 |
| RRIRSRPPRLPRPRPRPRMIPRP | -0.086 |

| Sequence | shrunken log2 fold change |
| --- | --- |
| RRIRWRPPRLPRPRPRPHPPPRP | 0.348 |
| RRIRWRPPRLPRPRPRPRAFPRP | 0.57 |
| RRIRTRPPRLPRPRPRPVVYPRP | -0.418 |
| RRIRRRPPRLPRPRPRPASKPRP | 0.276 |
| RRIRSRPPRLPRPRPRPKSPPRP | 0.291 |
| RRIRWRPPRLPRPRPRPYEEPRP | -0.334 |
| RRIRPRPPRLPRPRPRPEIPPRP | 0.0702 |
| RRIRWRPPRLPRPRPRPAADPRP | 1.21 |
| RRIRKRPPRLPRPRPRPCEEPRP | 0.56 |
| RRIRPRPPRLPRPRPRPYQSPRP | -0.194 |
| RRIRLRPPRLPRPRPRPQINPRP | -0.506 |
| RRIRNRPPRLPRPRPRPSEMPRP | -0.0844 |
| RRIRERPPRLPRPRPRPDFIPRP | -0.092 |
| RRIRHRPPRLPRPRPRPLALPRP | -0.563 |
| RRIRRRPPRLPRPRPRPPVDPRP | 0.241 |
| RRIRDRPPRLPRPRPRPEATPRP | 1.98 |
| RRIRYRPPRLPRPRPRPEFVPRP | -0.327 |
| RRIRFRPPRLPRPRPRPCHLPRP | -0.0779 |
| RRIRQRPPRLPRPRPRPLKAPRP | -0.253 |
| RRIRPRPPRLPRPRPRPTCWPRP | 0.349 |
| RRIRIRPPRLPRPRPRPAQFPRP | 0.0396 |
| RRIRQRPPRLPRPRPRPSTTPRP | -0.572 |
| RRIRDRPPRLPRPRPRPWHQPRP | -0.0511 |
| RRIRIRPPRLPRPRPRPFHFPRP | -0.27 |
| RRIRKRPPRLPRPRPRPDIYPRP | 0.152 |

| Sequence | shrunken log2 fold change |
| --- | --- |
| RRIRGRPPRLPRPRPRPFRAPRP | 0.209 |
| RRIRRRPPRLPRPRPRPWYIPRP | -0.595 |
| RRIRGRPPRLPRPRPRPMRIPRP | 2.34 |
| RRIRQRPPRLPRPRPRPNVFPRP | -0.14 |
| RRIRIRPPRLPRPRPRPPNGPRP | -0.291 |
| RRIRPRPPRLPRPRPRPCYKPRP | -1.32 |
| RRIRNRPPRLPRPRPRPCLLPRP | -0.414 |
| RRIRKRPPRLPRPRPRPCTEPRP | 0.0485 |
| RRIRHRPPRLPRPRPRPYQQPRP | -0.032 |
| RRIRERPPRLPRPRPRPGAGPRP | 0.395 |
| RRIRWRPPRLPRPRPRPIIIPRP | 0.117 |
| RRIRNRPPRLPRPRPRPPIKPRP | -0.279 |
| RRIRMRPPRLPRPRPRPCCTPRP | -0.229 |
| RRIRKRPPRLPRPRPRPVVEPRP | 0.274 |
| RRIRWRPPRLPRPRPRPAMSPRP | 0.403 |
| RRIRHRPPRLPRPRPRPQPPPRP | 0.373 |
| RRIRQRPPRLPRPRPRPPATPRP | 0.452 |
| RRIRHRPPRLPRPRPRPWSTPRP | -0.0631 |
| RRIRPRPPRLPRPRPRPHLHPRP | -0.0768 |
| RRIRWRPPRLPRPRPRPNHDPRP | -0.193 |
| RRIRYRPPRLPRPRPRPLSTPRP | -0.29 |
| RRIRNRPPRLPRPRPRPLNCPRP | -0.415 |
| RRIRTRPPRLPRPRPRPNLKPRP | -0.374 |
| RRIRERPPRLPRPRPRPWNVPRP | -0.0549 |
| RRIRLRPPRLPRPRPRPELSPRP | -0.113 |

Reference: the supplement of paper PMC9112550, “Optimization of the antimicrobial peptide Bac7 by deep mutational scanning” (BMC Biology, 2022)
